# Measurements from patent publication US8688427B2, “Enzyme catalysts for diels-alder reactions” (University of Washington, priority 2008, dated 2014).
# B1: DA_20_10: DA_20_04 with A272N, Q149R, A173C (protein)
# chain: MEIPVIEPLFTKVTEDIPGATGPVFDKNGDFYIVAPYVEVNGKPAGEILRIDLKTGKKTVICKPEVNGYGGIPIGCQCDRDANQLFVADMRLGLLVVQTDGTFEEIAKKDSEGRRMQGCAYCAFDYEGNLWITAPAGEVAPADFTISLREKFGSIYCFTTDGQMIQVDTAFQCPAGIAVRHMNDGRPYQLIVAEQPTKKLWSYDIKGPAKIENKKVWGHIPGTHKGGAAGMDFDEDNNLLVANWGSSHIEVFGPDGGQPKMRIRCPFEKPANLHFKPQTKTIFVTEHENNAVWKFEWQRNGKKQYCETLKFGIFGSLEHHHHHH
# modifications: Enzyme catalyst for Diels-Alder reaction
# notes: DA_20_04 with A272N, Q149R, A173C
# Legend:
# Format in all cases: biochemical
# [1] = Production run and effects of knocking out the catalytic residues; conditions: higher enzyme concentrations: 1 mM diene, 50 mM dienophile, 200 μM protein, PBS, 298K
# Method: The reaction was carried out in 1 mM diene, 50 mM dienophile, 200 μM enzyme, in PBS at 298K. The proteins assayed are DA—20—10 (υ), Y121F (▴), Q195E (x), and tela scaffold (*), uncatalyzed (λ).
# To determine whether the observed activity depends on the designed active site, we investigated the contributions of the designed catalytic residues in DA—20—10 to catalysis. Glutamine 195 was mutated into a glutamate (Q195E) and tyrosine 121 was mutated into a phenylalanine (Y121F). We had originally incorporated a glutamine rather than a glutamate at this position, despite the fact that the carboxylate should make a stronger hydrogen bond with the diene carbamate. This hydrogen bond should increase the energy of the diene HOMO (and thus decrease the energy gap with the dienophile LUMO), and more greatly stabilize the transition state. However, we were concerned that the substantial free energy cost of desolvating the carboxylate would considerably reduce binding affinity for the diene. […] The Y121F mutation decreases catalytic activity by 27-fold, consistent with the removal of a hydrogen bond that contributes to dienophile binding, stabilizes the dienophile LUMO, and is enhanced in the transition state.
# Timepoints were taken and measured as previously described over a period of 60 hours.
# [2] = Diels-Alder activity assay with purified protein, LC-MSMS product detection; conditions: 0.1 mM diene, 3 mM dienophile, PBS, 298K, 20 μM protein
# Method: The observed velocity for each mutant was normalized by the velocity of DA—20—00 in order to determine the effective rate enhancement conferred by each mutation. The reactions were done at 1 mM diene, and 10 mM dienophile, PBS, 298K, and 100 μM protein.
# Mutations showing enhanced activity on DA—20—04 were sequenced, grown large scale, and assayed. The assay was done at 0.1 mM dieine, 3 mM dienophile, PBS, 298K, and 20 μM protein.
# The Diels-Alder reactions were performed in PBS, at 25° C., with 4% DMSO. The DMSO came from the diene, for which the stock solution (100 mM) was made in DMSO and always diluted such that the final reaction would contain 4% DMSO. After incubation of the desired amount of diene and dienophile in the presence or absence of the protein, time points were taken of the reaction (5 μL) and quenched in a solution of 80:20 acetonitrile:water with 0.1% formic acid and 1 mM Benzoic Acid (95 μL). This reaction was incubated for 5 minutes and then the precipitated protein filtered using a Millipore multiscreen solvinert filter plate (Product Number: MSRLN0450). 20 μL of the filtered quench solution was then injected and analyzed using a liquid chromatography-tandem mass spectroscopy (LC-MSMS) assay.
# A total of 43 variants were assayed using the standard activity assay. The observed activities are described in Table 2. In Table 2, the Expression column provides the number of times the mutant was expressed; the Observed column reports the raw signal level out of the mass-spec for the product (the Observed column is not normalized nor background corrected); the Concentration column provides the concentration of the protein after large-scale expression. […]
# [3] = Kinetic characterization: reaction velocity versus diene and dienophile concentration
# Method: (A) Dependence of reaction velocity on diene concentration for different fixed dienophile concentrations. The diene concentration was varied from 3.0 to 0.18 mM with a fixed concentration of 100 mM (⋄), 66 mM (Δ), 44 mM (⋄), 30 mM (◯), 20 mM (◯), or 13 mM (●) dienophile (B) Dependence of reaction velocity on dienophile concentration for different fixed diene concentrations. The dienophile was varied from 100 to 13.0 mM with a fixed concentration of 3 mM (♦), 2 mM (▴), 1.3 mM (∇), 0.9 mM (Δ), 0.6 mM (⋄), 0.4 mM (□), 0.26 mM (◯), or 0.18 mM (●) […]. Reactions were carried out with 20 μM protein in PBS at 298 K.
# The kinetics of the DA—20—10 catalyzed reaction was characterized by measuring the dependence of the reaction velocity on the concentration of both diene and dienophile. The effective molarity (kcat/kuncat) of DA—20—10 is 100 M, and the rate enhancement (kcat/(kuncat*KM_diene)) in the presence of saturating dienophile and limiting diene is 1.0×10^5. At high substrate concentrations DA—20—10 proceeds for more than 30 turnovers before the enzyme loses activity. At higher enzyme concentrations more than 80% of the diene substrate is converted to product.
# The errors represent the calculated 95% confidence interval. The parameter a describes the cooperativity of binding between the two substrates: a value greater than one indicates negative cooperativity, whereas a value lower then one indicates positive cooperativity. α could not be determined for DA—20—00. Kinetic parameters for catalytic antibodies 7D4 and 4D5 were taken from (10, 17).
# Turnover number = conditions: high substrate concentrations: 3 mM diene, 100 mM dienophile, 25 μM enzyme, PBS, 298K
# Method: The reaction was carried out in 3 mM diene, 100 mM dienophile, 25 μM enzyme, in PBS at 298K. Turnover number was calculated by subtracting the product formed in the background reaction from the product formed in the enzymatic reaction. This enzyme-produced product was then divided by the protein concentration to determine turnover number.
# To quantify the number of turnovers reached before the DA—20—10 was inactivated, a reaction was setup with 25 μM enzyme, 3 mM diene, 100 mM dienophile in a PBS solution and incubated for 160 hours. Time points were taken, quenched, and filtered, and then analyzed using the liquid chromatography mass-spectroscopy assay. A standard curve ranging from 4 mM to 0.03 mM was used to quantify the amount of product produced.
molecule,measurement,setting,value
B1,diene substrate converted to product,[1],more than 80%
same,product formed per hour,[2],154.9 nM of product/hour
same,increase in overall catalytic efficiency over the original design model DA_20_00,[3],roughly 2200 fold
same,kcat relative to those of 7D4 and 4D5,"[3]; DA_20_10 at 298K, antibodies at 310K",10 fold
same,rate enhancement (kcat/(kuncat*KM_diene)) relative to either antibody,"[3]; saturating dienophile and limiting diene, versus 7D4 and 4D5",20 fold
same,effective molarity (kcat/kuncat) relative to either antibody,[3]; versus 7D4 and 4D5,20 fold
same,turnovers before the enzyme loses activity,Turnover number,more than 30 turnovers
